Results as given in PMC4032242.

Biological target: type I IFN-β receptor (human (endogenous in A549 and Daudi)) (UniProt P48551)
Chain of UniProt P48551 (P48551 27-515): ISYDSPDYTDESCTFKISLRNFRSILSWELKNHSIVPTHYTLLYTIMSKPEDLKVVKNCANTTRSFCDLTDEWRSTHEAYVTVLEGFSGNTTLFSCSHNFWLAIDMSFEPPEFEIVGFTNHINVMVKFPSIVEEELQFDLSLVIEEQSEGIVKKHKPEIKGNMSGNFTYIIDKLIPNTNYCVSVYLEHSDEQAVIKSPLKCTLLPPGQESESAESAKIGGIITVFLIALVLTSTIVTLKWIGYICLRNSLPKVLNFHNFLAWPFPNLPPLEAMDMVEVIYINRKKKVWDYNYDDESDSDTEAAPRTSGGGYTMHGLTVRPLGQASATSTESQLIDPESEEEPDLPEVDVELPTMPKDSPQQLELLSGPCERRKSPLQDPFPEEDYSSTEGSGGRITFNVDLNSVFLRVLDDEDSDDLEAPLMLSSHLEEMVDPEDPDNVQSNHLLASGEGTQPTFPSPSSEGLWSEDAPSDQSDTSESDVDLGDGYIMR

| 50% response in a FACS assay of IFN-inducible expression of MHC class I on the surface of A549 cells [pg/mL] | IC50 in the antiproliferative assay (Daudi cells, 48 hr) [ng/mL] | in vitro anti-viral activity (protection of A549 cells against the cytopathic effect of EMCV), average of three lots [IU/mg] | in vitro anti-viral activity (protection of A549 cells against the cytopathic effect of EMCV), average of two lots [IU/mg] | in vitro anti-viral activity (protection of A549 cells against the cytopathic effect of EMCV) [IU/mg] | Substance |
| --- | --- | --- | --- | --- | --- |
| 265 | 0.014 | 2.99e+08 | – | – | R27T (rhIFN-β mutein with N-glycosylation at the 25th and 80th amino acid) (from UniProt P01574 22-187) (ligand) |
| 359 | 0.022 | – | 2.52e+08 | – | R27TΔGlyc (from UniProt P01574 22-187) (ligand) |
| 238 | 0.029 | – | – | 2.88e+08 | Rebif (recombinant human interferon-β 1a) (from UniProt P01574 22-187) (ligand) |
